In paper PMC10130748 (Life Science Alliance, 2023):
Positions of bridges follow the written chain, without caps; N, C: chain ends. No end group written: not given here.

Biological target: T1, CD62P (P-selectin) lectin domain (residues 1–117), wild type
T1 construct: CD62P (P-selectin) C-type lectin domain, residues 1-117; cDNA chemically synthesized, BamHI/EcoRI site of pET28a; also called CD62P lectin domain; C-type lectin domain of CD62P; not shown: His tag from pET28a ([residues removed]), N-terminal, kept
T1 chain: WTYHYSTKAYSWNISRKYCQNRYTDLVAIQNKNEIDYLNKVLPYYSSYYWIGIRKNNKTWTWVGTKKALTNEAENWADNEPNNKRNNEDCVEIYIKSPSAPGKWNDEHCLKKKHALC
Experiment: ELISA; wells coated with the CD62P lectin domain (20 μg/ml), blocked with BSA; site 2 peptides fused to GST (100 μg/ml); bound GST detected with HRP-conjugated anti-GST
Conditions: both partners purified

| Binder | binding result |
| --- | --- |
| CKLGGIVLPNDGQSHLENNMYTMSHYYC (disulfide 1-28 (inferred); also: fused to GST, also called cyclic site 2 peptide from β1; site 2 peptide from β1) [cyclic site 2 peptide of integrin β1 (residues 268–295, C281S) fused to GST] | binds |
| CRLAGIVQPNDGQSHVGSDNHYSASTTMC (disulfide 1-29 (inferred); also: fused to GST, also called cyclic site 2 peptide from β3; site 2 peptide of β3) [cyclic site 2 peptide of integrin β3 (residues 260–288, C273S) fused to GST] | binds |
